Test results taken from the DeepSol protein solubility set.

Experiment: soluble on expression in E. coli; label from the status in PepcDB or PDB records

Sequence | soluble on expression in E. coli
MAHHHHHHMKPEGAKGAVVSDDVGGDSANLAYCSDRITLLSRADIEAFTCCSNGAGGGGASNSENHNGGCGGLASEAQSVDPCSTLDTCIAALPMFLQSEALVLRRHEQQFRHHMKELVELTECITLLCDGSLRQHAAAVAGQPAEQSADAQRAESAALHRMLHRAEELERYVRAAAVERLRSAQRMVLAASTTKRREKVGRKSAVRPPKATK | not soluble
MPREESESPLLVYEDPRHTPYTPFKYARKDEEERSSGGGKSPPKKAPKAQDRMSLRDKFEAAPTTKKRKTAQDPADELLQAIKPLFNQVKKEMADQLADQLGRFNEQLDMAVNSFSDEIVKLKADHALAEKNVDTYAQKVSGMFQRADMMSANVQEQRTQQAEDNRMASKARDRIIYDIAQVATNMKTMSETIAKIDAREEQAAQKQAERHTPQGGQGSLEPALKCPLCKRHHAPENCTIIRNGLDRREEAEKIKMCIQCLEVGVTNDDWVHEGCPKEKEQCTRCTKYMKPGEIAQTHHNATFCLMLTSKQYKLERKGSPSDRDYSPKGRRGPIRSRHNRYGG | not soluble
MSLTKEAIISYLSSDLFKGVGKKTAQNIVNTLGDNAINDILDDHSVLEKVSGLSKKKQKQIAEQISANQESEKIMIRLHDLGFGPKLSMAIYQFYLGDTLTILDRNPYQLIYDIKGIGFNKADQLARNIGIAYNDNERLKAALLYTLEEECIKQGHTYLPINVVIDLTVDVLNYQDEEVIEPEKLDEMLQYLNEEKRLIIDNEQVAIPSLYYSEIKSVQNLFRIKTHTNKLTEIEQSDLQMHIGEIEDANQVNYAASQKEALQTAINSKVMLLTGGPGTGKTTVIKGIVELYAEIHGLSLDYDDYVNDDYPVVLAAPTGRASKRLQESTGLEAMTIHRLIGWNQDTKPEDILENEINARLIIIDEMSMVDTWLFHQFLSAVPLDAQLIFVGDEDQLPSVGPGQVFKDLIESKAIPRVNLTEVYRQQDGSSIIELAHRMKLGQKIDITQRFHDRSFINCQANQIPTVVEKVVTSAVNKGYTMADIQVLAPMYKGNAGIKRLNQVLQDILNPKKKDTREIEFGDVVFRKGDKVLQLVNRPNDNIFNGDIGVIVGIFWAKENALNKDVLVVDFEGNEITFTKQDMMELTHAYCTSIHKSQGSEFPIVIMPIVKQYFRMLQRPILYTGLTRAKTSLVLLGDPEAFDIGLKTNGQARLTQLCTLLKNYFNSEGHHHHHH | soluble
SLKSGCSARQVCAGNTHFAVVTVEKELYTWVNMQGGTKLHGQLGHGDKASYRQPKHVEKLQGKAIHQVSCGDDFTVCVTDEGQLYAFGSDYYGCMGVDKVAGPEVLEPMQLNFFLSNPVEQVSCGDNHVVVLTRNKEVYSWGCGEYGRLGLDSEEDYYTPQKVDVPKALIIVAVQCGCDGTFLLTQSGKVLACGLNEFNKLGLNQCMSGIINHEAYHEVPYTTSFTLAKQLSFYKIRTIAPGKTHTAAIDERGRLLTFGCNKCGQLGVGNYKKRLGINLLGGPLGGKQVIRVSCGDEFTIAATDDNHIFAWGNGGNGRLAMTPTERPHGSDICTSWPRPIFGSLHHVPDLSCRGWHTILIVEKVLNSKTIRSNSSGLSIGTVFQSSS | soluble
MSLRKNESIRLIALGGVGEIGKNMYLAEVDEDLYVIDAGLMFPENEMLGIDIVIPDVSYLVQNKDRIRGIFLTHGHEDHIGALSYVLKKVSVPVYGTKLTLALAKAKMKEQDYRGKAELIEINSDSVLEFEHSSVSFFRTNHSIPDSVGICIHTSEGSIVYTGDFKFDQAAPELYKAEIGKMAGIGDNGVLCLLSDSTDAERPGYSTSEAVVQKAMAHAFYSAKGRVIAACFASDLIQIQHIFDAAEESGRKVAVAGKSIQKVYDLAVQLGYLAVKDDILIPLSELGSFRDHEVVILTAGSQGEPIEALQKMAKRTHRQVTIQEGDTVYLAAAPIRGGEVFIYKTMDMLYRAGATVITGKNSATASSHGSQEELKFMINLMKPKHFIPVHGEYKTLKSHGKLAAECGISQDSILIPEKGDVFEIKDGRIKQSGRVPAGNVLIDGIGVGDVGNIVLRDRRLLSQDGILIVVVTLNRHDKQIAAGPEIISRGFVYVRESEKLLVQAADMVKEIVHRGSQKESFDWAAVKQDMRDELNQFFYEKTKRRPMILPIIMEVKQEGHHHHHH | soluble
MGSDKIHHHHHHMLLNLFNEMRAAKVPVSVRELLDLIDALKHRVVFADMDEFYYLARTIMVKDERHFDKFDRAFGAYFKGLEKLDDHLKALIPEEWLRKEFERLLTDEEKAQIQSLGGLDKLIEEFKKRLEEQKERHAGGNKWIGTGGTSPFGSGGFNPEGIRVGDAGKRQGKAAKVWDQREYKNLDDQVELGTRNIKIALRRLRKFAREGAAEELDIDGTIDHTAKDAGLLNIQMRPERRNTVKLLLLLDIGGSMDAHVKVCEELFSACKTEFKHLEYFYFHNFIYESVWKNNLRRSSERTATFDLLHKYGPDYKVVFVGDAAMAPYEITQAGGSVEHWNEEAGYVWMQRFMEKYKKLIWINPYPKDTWNYTASTGLVRELVKEQMYPLTLSGLEEGMRFLSRG | not soluble
MAANRVAMEEDITESVTLMVDSVSSSPMTPKTVTVKEDETHHPYAFHVSGPRNVASPNWRDLINSSWKDPNYKRTVMACFIQAAYLLELDRQENRNEQNALAPKWWIPFKYKLSQTLIDERDGSIFGAVLEWDRAAAMADLVVIRPSGAPKAVLALRGTILKSLTMRRDIEDDLRFLAWESLKGSVRFNVALEALQSVATRYGSSNVCVVGHSLGAGFALQVGKSLAKEGLFVDAHLFNPPSISVAMSLRNISEKAGVAWKRLMSMLPPKHEPLIQNSNEGQVSPSNVSSGFRNWVPSFYGSNQKPTVDLRKWVPHLYVNDSDYICCHYTDQDGVAEKREMNNKENNSPVVNTNFQAAAKLFVMSKGKQKFHEAHGLEQWWSDNLELQSAIHSSRLISQQLKSLYSIK | soluble
MSSHHHHHHMQFDVTIEIPKGQRNKYEVDHETGRVRLDRYLYTPMAYPTDYGFIEDTLGDDGDPLDALVLLPQPVFPGVLVAARPVGMFRMVDEHGGDDKVLCVPAGDPRWDHVQDIGDVPAFELDAIKHFFVHYKDLEPGKFVKAADWVDRAEAEAEVQRSVERFKAGTH | soluble
MKKGSRHNFVVSQENWTLHRKGYQDQRRHQEKVKEAIRKNLPDLVSEENIIMSNGREVIKIPIRSLDEYKIRYNYDKNKHVGQGDGDSQVGDVIARDPSAGQQGPGKGQGAGDQPGEDYFEAEVSILELEELLFRELELPNLQQKEEDHLVVEHIEFNDIRKKGLMGNIDKRRTILSAIKRNALEGRPGLIPIYNDDLRFKTWNEVVRPESKAVVLAMMDTSGSMGRWEKYMARSFFFWMTRFLRTKYETVDIEFIAHHTEAKVVSEEDFFSKGESGGTICSSAYRKALELINEKYDPARYNIYPFHFSDGDNLTSDNARCLKLVHELMESSSMFGYGEVNQYSRHSTLMNAYKNLKDPRFRSYVLKEKGDVYRAMKTFFKKEEEAVSAAALEHHHHHH | soluble
MSIIKKIVFKRFNSTLKKTALHDLHVSLGGTMVPYAGYSMPVLYKGQTHIESHNWTRTNAGLFDVSHMLQSKLSGPHSVKFLQRVTPTDFNALPVGSGTLSVLLNPQGGVVDDTIITKENDDNEFYIVTNAGCAERDTEFFHDELQNGSTLDCQWKIIEGRSLLALQGPKAKDVLEPLLSKTAPGKDLKELFFGQRHEFALKDGSLVQIARGGYTGEDGFEISIANEKAVEFAEQLLANPVMKPIGLAARDSLRLEAGMCLYGHELDESITPVEAALNWVISKSRRDLVDQKYWFNGYAKIMDQLNNKTYSKVRVGFKYLKKGPAARNGVKIFLPDAETEVGLVTSGSASPTLNNINIGQAYVQKGYHKKGTKLLVQVRNKFYPIELAKMPLVPTHYYKQ | not soluble
MTSACGFHLRGDYLLPDEVHEISLTSFDQYSSLTRDVQKQLRMNGIRQVAPTTVTPSLDLISESLNERTLSLYQNSRAAEKELTYNVSYSVLIPGHDLKTYTTTVNRNYLDNPLTALAKSVERDMIEEEMRAQAAEQILRQMARLKADDAPVETSDVITHDDETESKVTTKEVIKSMSTTAETTQLEHHHHHH | soluble
MSPKSKSTNKTYTIVIKLGTSSICDEKTHEPLISNLSLIVETVVKLRKLGHNVVLVSSGGIAMGLRRLDLPKRPSKLSAVQAIAAVGQGRLISLWDTLFTQLRQPIAQVLITRNDIAERSQYVNAANTISELLHFGVVPIVNENDTLSVQEIRFGDNDTLSAITAGMINADYLFLLTDVDCLYTDNPRTNPDAKPILKIHDTSMVNANVSTPGSGVGTGGMKTKLIAADLGTSSGVNVIICRGSKPSSIFDIIRQESSDNKNESVELPLHTHFVAKKQGRIRDRHFWLLHGLKSHGSLEIDRGAFEAITRTNRAGLLPVGVTKVHGHFSAHQAVTVIYNGEEIGRALVNYSSTEIDLIKGKRSKEIASILGYNETEYVAYRDYLVVHGLNSHHDSQVSSDEH | soluble
MSVAVATLHAAASGAVLRRRRTYIHPQQPAADVCPQACTRICPPPPLPHGLRVRGGHLVRYTACVPAHTGSMSASSTVSDRRVCIFFDCRVAGDGKGYEELRQTVYAQCSQLLTLSYLHYQRSGTTLSATVHLVTHTRVESFATPFCATSTDHPIDSGAAGVISGLRALAAAQPDHSVNACGAAIFGNRMESVLPHVQRALGGSQQRHQLILFCSSYVSHTEATQSLSGLCLDASPHQRLRCILVDWEAVCVTVGELASNVRVYRCSRSARQLQAAMQEILSLFLLPDVRSSRRLGLQLGLQAVPVIATISHYGAFLDGRDTIGSVVATDRASSAAAPMAGGVMHQRLAETNHRHNRANAASVVERDDRDPWSTLHLRAVLEADNIDESFLMGDTWTLALDTSAASTSTLTSSSAPSWPCTASTVALWHAFCNAFLGDALVFTGEETGIEAHRHAMQRHHHFVAYFMPDRTMRVREIVPPELRFVPLPAFPTREGLREQKAYTTEMQRLREQLVSHCACASFSLDALLSSGGHGAASTP | not soluble
MDPYQQGGRGGGFPARGGRGGGHGGGYPQEGYGAAAGGYGGYDPYNPYGAAGGYGMYPGQGYPPQEMTSPLDAEIQAVLREIHLEVTGLETSGDQFRNARRLLNSEKERLENNIDPEWLEVDVAKPVKVCKKILVPIYRHPNFNFIGKVLGPKGATLQTLCKTHKCHIYILGRGSTKDREKEAELLASGDPQHAHFSGPLHVKVETVAPAYIAYGRVAAVIEELSRILQPIHEDTTPAHLKNGSGDGEEKEDEEKKEGGEGGGRGGRGGRGGFRGGFRGGRGGFGGPGGPMGGRGGMGGMGGRGRGGQAAGFRPY | not soluble
MRYLIATAVLVAVVLVGWPAAGAPPSCAGLGGTVQAGQICHVHASGPKYMLDMTFPVDYPDQQALTDYITQNRDGFVNVAQGSPLRDQPYQMDATSEQHSSGQPPQATRSVVLKFFQDLGGAHPSTWYKAFNYNLATSQPITFDTLFVPGTTPLDSIYPIVQRELARQTGFGAAILPSTGLDPAHYQNFAITDDSLIFYFAQGELLPSFVGACQAQVPRSAIPPLAI | soluble
MSLTALYVQNKINGKIILPFSHSMTNVLRLNRSYGRTMLISNTYNQHFPQLTQEQLARNATKKVICGMSGGVDSSVSAFILQQQGYQVEGLFMKNWEEDDDTDYCTAAADLADAQAVCDKLGIKLHKINFAAEYWDNVFEHFLTEYKAGRTPNPDILCNKEIKFKAFLEYAAEDLGADYIATGHYVRRAGDNENAKLLRGLDPNKDQSYFLYTLSHKQVGQSLFPVGEIEKPIVRAIAEDLGLITAKKKDSTGICFIGERKFKDFLARYLPAQPGNIRTVDDEIIGRHDGLMYHTLGQRKGLGIGGLKNAGDEAWYVVDKDVENNELIVAQGHDHPRLFSKGLIASQLHWVDREPIRESLRCTVKTRYRQQDIPCVIEPIDDETIRVIFDEPQSAVTPGQSAVFYLGEVCLGGGIIAERIEGHHHHHH | soluble
